Source: PMC4609965 (2015)

Molecular target: alpha-synuclein (Homo sapiens, UniProt P37840)
Assay: NMR PRE titration

| Kd [µM] | Binder |
| --- | --- |
| ~500 | YEMPSEEGYQDYEPEA [alpha-synuclein 125-140] |
| ~100 | EGESYEDPPQEEYQEYEPEA [beta-synuclein 115-134] |
